The values below come from patent publication US6753413.

The target of data set [1] is reconstituted Nclk (GST-p25/GST-Cdk5 complex) [GST: P08515]. Description: cell-based or functional assay.
The test system of data set [2] is T1, GST-C48 (SEQ. ID NO 4).
T1 sequence: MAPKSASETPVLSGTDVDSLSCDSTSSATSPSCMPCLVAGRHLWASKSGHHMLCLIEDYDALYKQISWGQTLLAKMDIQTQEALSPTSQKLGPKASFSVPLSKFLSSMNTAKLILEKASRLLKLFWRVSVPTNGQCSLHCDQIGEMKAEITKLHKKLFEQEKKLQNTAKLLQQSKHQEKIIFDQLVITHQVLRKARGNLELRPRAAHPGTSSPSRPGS

Data set [3] concerns T2, GST-C53 (SEQ ID NO 6).
T2 sequence: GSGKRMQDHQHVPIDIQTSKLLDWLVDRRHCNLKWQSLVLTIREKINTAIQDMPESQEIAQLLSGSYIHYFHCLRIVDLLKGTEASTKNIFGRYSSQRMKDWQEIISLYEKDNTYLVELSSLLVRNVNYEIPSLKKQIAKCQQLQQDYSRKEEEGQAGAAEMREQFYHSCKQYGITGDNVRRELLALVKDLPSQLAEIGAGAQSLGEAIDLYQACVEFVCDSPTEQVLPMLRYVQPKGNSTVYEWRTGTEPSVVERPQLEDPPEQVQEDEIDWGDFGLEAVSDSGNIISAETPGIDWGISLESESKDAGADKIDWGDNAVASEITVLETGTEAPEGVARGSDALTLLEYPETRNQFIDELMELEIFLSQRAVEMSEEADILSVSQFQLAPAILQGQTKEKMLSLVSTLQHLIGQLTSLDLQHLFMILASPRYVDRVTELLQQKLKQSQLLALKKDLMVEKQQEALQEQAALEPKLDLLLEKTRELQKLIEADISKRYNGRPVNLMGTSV

Bounds are passed on as bounds.

In turn, “GST-C48 (SEQ. ID NO 4) (from UniProt Q9JLH5 1686-1903)” registered an inhibition of Cdk5 kinase activity in data set [1] of less than 20%.

Consider “GST-C53 (SEQ ID NO 6) (from UniProt Q9JLH7 1-504)”, for which the inhibition of Cdk5 kinase activity in data set [1] was less than 20%.

In the case of “reconstituted Nclk (GST-p25/GST-Cdk5 complex)”, the “phosphorylation by reconstituted Nclk (autoradiograph, Mg[γ-32P]ATP)” value in data set [2] is “the SEQ ID NO 4 (C48) and SEQ ID NO 6 (C53) proteins, but not the SEQ ID NO 2 (C42) protein, were phosphorylated by Cdk5 kinase”; in data set [3] it was “the SEQ ID NO 4 (C48) and SEQ ID NO 6 (C53) proteins, but not the SEQ ID NO 2 (C42) protein, were phosphorylated by Cdk5 kinase”.
